Measured values as given in the supplement of paper PMC9112550, “Optimization of the antimicrobial peptide Bac7 by deep mutational scanning” (BMC Biology, 2022).

Tested on: Escherichia coli TOP10
Test: shrunken log2 fold change of peptide-encoding DNA abundance (4.5 h post-induction vs induction); higher = less antimicrobial activity (less host growth inhibition)
Conditions: time post-induction: 4.5 h; library: site-saturation at positions 5, 18, 19, 20
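Also: peptides expressed intracellularly from a pBAD plasmid library in pooled LB shake-flask culture, induced with 0.3% L-arabinose, DNA abundance read by NGS, three biological replicates, DESeq2 with apeglm shrinkage.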

Row | Sequence | shrunken log2 fold change
1 | RRIRGRPPRLPRPRPRPLDLPRP | 0.717
2 | RRIRIRPPRLPRPRPRPQRNPRP | -0.188
3 | RRIRPRPPRLPRPRPRPHDYPRP | -0.0318
4 | RRIRFRPPRLPRPRPRPHVDPRP | -0.00919
5 | RRIRARPPRLPRPRPRPGCQPRP | 0.168
6 | RRIRHRPPRLPRPRPRPMKPPRP | -0.0628
7 | RRIRGRPPRLPRPRPRPPRQPRP | 1.27
8 | RRIRWRPPRLPRPRPRPHYDPRP | -0.0735
9 | RRIRSRPPRLPRPRPRPCLRPRP | -0.385
10 | RRIRERPPRLPRPRPRPSIGPRP | -0.406
11 | RRIRPRPPRLPRPRPRPTPEPRP | 0.277
12 | RRIRVRPPRLPRPRPRPDNVPRP | 0.171
13 | RRIRYRPPRLPRPRPRPPAYPRP | -0.767
14 | RRIRRRPPRLPRPRPRPNEDPRP | 0.352
15 | RRIRGRPPRLPRPRPRPGESPRP | 0.584
16 | RRIRRRPPRLPRPRPRPDYSPRP | -0.263
17 | RRIRSRPPRLPRPRPRPAAMPRP | 0.852
18 | RRIRWRPPRLPRPRPRPKTSPRP | 0.104
19 | RRIRRRPPRLPRPRPRPLYPPRP | -0.0452
20 | RRIRTRPPRLPRPRPRPCHIPRP | -0.292
21 | RRIRKRPPRLPRPRPRPEHQPRP | 0.163
22 | RRIRYRPPRLPRPRPRPTWEPRP | -0.0387

Row | Sequence | shrunken log2 fold change
23 | RRIRYRPPRLPRPRPRPFEPPRP | -0.343
24 | RRIRQRPPRLPRPRPRPNNFPRP | -0.17
25 | RRIRSRPPRLPRPRPRPETKPRP | 0.187
26 | RRIRPRPPRLPRPRPRPHTSPRP | -0.622
27 | RRIRSRPPRLPRPRPRPDRDPRP | -0.0344
28 | RRIRFRPPRLPRPRPRPKCRPRP | -0.0272
29 | RRIRRRPPRLPRPRPRPFDQPRP | 0.0321
30 | RRIRWRPPRLPRPRPRPIVKPRP | -0.174
31 | RRIRQRPPRLPRPRPRPADWPRP | 0.258
32 | RRIRARPPRLPRPRPRPKIQPRP | 0.26
33 | RRIRTRPPRLPRPRPRPIGPPRP | 0.0411
34 | RRIRGRPPRLPRPRPRPTRPPRP | 1.16
35 | RRIRFRPPRLPRPRPRPISPPRP | -0.211
36 | RRIRKRPPRLPRPRPRPPIRPRP | -0.104
37 | RRIRKRPPRLPRPRPRPWFPPRP | -0.0488
38 | RRIRYRPPRLPRPRPRPTTWPRP | -0.358
39 | RRIRARPPRLPRPRPRPWYRPRP | -0.099
40 | RRIRFRPPRLPRPRPRPVYRPRP | -0.285
41 | RRIRSRPPRLPRPRPRPTIQPRP | -0.305
42 | RRIRGRPPRLPRPRPRPHDVPRP | 0.118
43 | RRIRKRPPRLPRPRPRPHEIPRP | 0.704
44 | RRIRIRPPRLPRPRPRPISQPRP | -0.961

Row | Sequence | shrunken log2 fold change
45 | RRIRWRPPRLPRPRPRPCGLPRP | 0.123
46 | RRIRPRPPRLPRPRPRPGGAPRP | 0.47
47 | RRIRYRPPRLPRPRPRPNEQPRP | 0.0039
48 | RRIRPRPPRLPRPRPRPGKVPRP | -0.0669
49 | RRIRPRPPRLPRPRPRPNITPRP | -0.293
50 | RRIRSRPPRLPRPRPRPWYRPRP | -0.119
51 | RRIRGRPPRLPRPRPRPIKQPRP | -0.0183
52 | RRIRTRPPRLPRPRPRPQMLPRP | -0.0274
53 | RRIRVRPPRLPRPRPRPWAYPRP | -0.323
54 | RRIRKRPPRLPRPRPRPNWQPRP | 0.0483
55 | RRIRCRPPRLPRPRPRPARFPRP | 0.558
56 | RRIRHRPPRLPRPRPRPALPPRP | 0.0229
57 | RRIRCRPPRLPRPRPRPKLPPRP | -0.0559
58 | RRIRMRPPRLPRPRPRPNQMPRP | 0.217
59 | RRIRMRPPRLPRPRPRPDSPPRP | 0.0492
60 | RRIRVRPPRLPRPRPRPQDWPRP | -0.132
61 | RRIRYRPPRLPRPRPRPYKLPRP | -0.491
62 | RRIRVRPPRLPRPRPRPQIDPRP | -0.321
63 | RRIRPRPPRLPRPRPRPIDFPRP | -0.125
64 | RRIRERPPRLPRPRPRPKNRPRP | 0.103
65 | RRIRNRPPRLPRPRPRPGLAPRP | 0.415
66 | RRIRWRPPRLPRPRPRPVLRPRP | 0.106

Row | Sequence | shrunken log2 fold change
67 | RRIRLRPPRLPRPRPRPGSRPRP | -0.183
68 | RRIRTRPPRLPRPRPRPSHEPRP | -0.299
69 | RRIRGRPPRLPRPRPRPQMCPRP | 0.522
70 | RRIRQRPPRLPRPRPRPMRWPRP | 0.0431
71 | RRIRVRPPRLPRPRPRPLHCPRP | 0.238
72 | RRIRGRPPRLPRPRPRPFTWPRP | 0.725
73 | RRIRNRPPRLPRPRPRPTTHPRP | 0.102
74 | RRIRSRPPRLPRPRPRPYTCPRP | -0.039
75 | RRIRQRPPRLPRPRPRPNFPPRP | -0.00205
76 | RRIRRRPPRLPRPRPRPISQPRP | -0.395
77 | RRIRYRPPRLPRPRPRPIQPPRP | 0.00143
78 | RRIRRRPPRLPRPRPRPPVVPRP | 0.26
79 | RRIRMRPPRLPRPRPRPGTWPRP | 0.043
80 | RRIRHRPPRLPRPRPRPNIGPRP | -0.431
81 | RRIRDRPPRLPRPRPRPDHAPRP | -0.00822
82 | RRIRKRPPRLPRPRPRPSRMPRP | 0.317
83 | RRIRKRPPRLPRPRPRPSDEPRP | 0.258
84 | RRIRIRPPRLPRPRPRPSSVPRP | -1.03
85 | RRIRERPPRLPRPRPRPYIEPRP | -0.266
86 | RRIRVRPPRLPRPRPRPMIGPRP | -0.112
87 | RRIRPRPPRLPRPRPRPDHEPRP | 0.0217
88 | RRIRMRPPRLPRPRPRPLLDPRP | 0.409

Row | Sequence | shrunken log2 fold change
89 | RRIRQRPPRLPRPRPRPFETPRP | -0.232
90 | RRIRIRPPRLPRPRPRPSNMPRP | -0.353
91 | RRIRTRPPRLPRPRPRPLWQPRP | 0.0687
92 | RRIRCRPPRLPRPRPRPCNLPRP | -0.0646
93 | RRIRDRPPRLPRPRPRPCAFPRP | 0.822
94 | RRIRRRPPRLPRPRPRPGLWPRP | 0.622
95 | RRIRWRPPRLPRPRPRPVKVPRP | -0.0471
96 | RRIRERPPRLPRPRPRPTQYPRP | -0.304
97 | RRIRTRPPRLPRPRPRPWCQPRP | -0.134
98 | RRIRERPPRLPRPRPRPMTMPRP | -0.136
99 | RRIRQRPPRLPRPRPRPCSMPRP | -0.273
100 | RRIRLRPPRLPRPRPRPIEDPRP | 0.0562
101 | RRIRVRPPRLPRPRPRPCSTPRP | -0.127
102 | RRIRPRPPRLPRPRPRPTKSPRP | 0.777
103 | RRIRARPPRLPRPRPRPKDVPRP | 0.0479
104 | RRIRDRPPRLPRPRPRPNTGPRP | -0.098
105 | RRIRLRPPRLPRPRPRPAVHPRP | -0.149
106 | RRIRWRPPRLPRPRPRPTSPPRP | 0.217
107 | RRIRSRPPRLPRPRPRPATDPRP | 0.157
108 | RRIRPRPPRLPRPRPRPASMPRP | -0.295
109 | RRIRTRPPRLPRPRPRPCKPPRP | -0.996
